Results as given in paper doi:10.1101/2022.07.30.502139.

Target: OTLD1-RFP (Arabidopsis)
Assay: FRET or BRET

B1: LSH10-GFP (natural protein)
chain: MSSPRERGKSLMESSGSEPPVTPSRYESQKRRDWNTFGQYLKNQRPPVPMSHCSCNHVLDFLRYLDQFGKTKVHVPGCMFYGQPEPPAPCTCPLRQAWGSLDALIGRLRAAYEENGGPPETNPFASGAIRVYLREVRECQAKARGIPYKKKKKKKPTPEMGGGREDSSSSSSSFSFS
For B1, the %AB-FRET (donor dequenching) was 13%.
